The values that follow are results of earlier work, collected in patent publication US20220223299A1, “METHODS AND APPARATUSES FOR MODELING, SIMULATING, AND TREATING HEREDITARY ANGIOEDEMA” (Takeda Pharmaceutical Company Limited, priority 2019, published 2022).

In general, half-life refers to the time in which the quantity being followed falls by half.

The target of data set [1] is T1, FXIIa (Homo sapiens, UniProt P00748).
T1 sequence (P00748 20-372 partner limits assumed): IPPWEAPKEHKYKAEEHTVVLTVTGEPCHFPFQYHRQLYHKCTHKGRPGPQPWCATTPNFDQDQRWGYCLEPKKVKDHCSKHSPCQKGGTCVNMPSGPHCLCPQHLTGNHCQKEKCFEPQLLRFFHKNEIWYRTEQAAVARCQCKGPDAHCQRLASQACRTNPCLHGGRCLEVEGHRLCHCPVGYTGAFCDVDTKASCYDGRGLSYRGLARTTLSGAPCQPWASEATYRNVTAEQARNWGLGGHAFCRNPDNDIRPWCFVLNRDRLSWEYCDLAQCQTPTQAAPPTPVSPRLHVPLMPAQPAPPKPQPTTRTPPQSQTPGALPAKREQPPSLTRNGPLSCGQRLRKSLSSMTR
T1 sequence (P00748 373-615 limits assumed): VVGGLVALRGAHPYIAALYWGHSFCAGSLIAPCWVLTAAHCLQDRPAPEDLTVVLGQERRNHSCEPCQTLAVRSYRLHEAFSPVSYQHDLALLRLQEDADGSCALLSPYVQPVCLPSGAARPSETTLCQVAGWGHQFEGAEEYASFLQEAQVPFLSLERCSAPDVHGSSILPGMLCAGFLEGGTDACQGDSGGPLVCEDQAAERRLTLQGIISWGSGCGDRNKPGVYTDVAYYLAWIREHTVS
The conditions noted are these: FXIIa in plasma and FXIIa_gC1qR.

Data set [2] deals with T2, KAL (kallikrein) (Homo sapiens, UniProt P03952).
T2 construct: The preKAL is cleaved by FXIIa resulting in KAL, the two-chain enzyme kallikrein
The conditions noted are these: KAL in plasma, KAL_HMWK in plasma and KAL_HMWK_gC1qR.

In data set [3] the target is T3, KAL (plasma kallikrein) (Homo sapiens, UniProt P03952).
T3 construct: The preKAL is cleaved by FXIIa resulting in KAL, the two-chain enzyme kallikrein
The note with it: KAL in plasma, KAL_HMWK in plasma and KAL_HMWK_gC1qR.

The conditions of data set [4]: in vivo.

T3 sequence (P03952 20-390 partner limits assumed): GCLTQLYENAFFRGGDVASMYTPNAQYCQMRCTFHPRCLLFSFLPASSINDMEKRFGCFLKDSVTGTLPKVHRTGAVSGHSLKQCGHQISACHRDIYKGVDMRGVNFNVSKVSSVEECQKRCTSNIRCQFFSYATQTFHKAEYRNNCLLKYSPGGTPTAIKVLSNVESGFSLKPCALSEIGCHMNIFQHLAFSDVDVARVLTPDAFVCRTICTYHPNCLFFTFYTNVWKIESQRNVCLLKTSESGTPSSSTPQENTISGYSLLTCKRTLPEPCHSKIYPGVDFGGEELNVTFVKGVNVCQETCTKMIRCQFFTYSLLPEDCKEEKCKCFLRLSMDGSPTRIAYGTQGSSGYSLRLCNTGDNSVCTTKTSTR
T3 sequence (P03952 391-638 limits assumed): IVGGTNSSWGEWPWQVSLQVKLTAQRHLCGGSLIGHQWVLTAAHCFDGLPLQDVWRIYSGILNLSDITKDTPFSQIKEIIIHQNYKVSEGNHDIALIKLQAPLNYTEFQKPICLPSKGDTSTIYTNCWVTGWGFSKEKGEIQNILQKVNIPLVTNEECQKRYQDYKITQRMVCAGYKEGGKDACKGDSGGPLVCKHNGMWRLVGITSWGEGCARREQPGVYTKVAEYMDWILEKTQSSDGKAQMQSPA
T2 sequence (P03952 20-390 partner limits assumed): as the sequence (P03952 20-390 partner limits assumed) above
T2 sequence (P03952 391-638 limits assumed): as the sequence (P03952 391-638 limits assumed) above

Consider “C1Inh: C1 inhibitor protein; binds to and inhibits both Factor XIIa and kallikrein”, for which, in data set [1], the koff_C1Inh_FXIIa was 0.06364 s⁻¹ and the kon_C1Inh_FXIIa is 37000 M⁻¹ s⁻¹. For the same molecule, the Kd in data set [1] (read-out: Kd_C1Inh_FXIIa) is 1.72 µM. In data set [2], the koff_C1Inh_KAL is 0.00255 s⁻¹ and the kon_C1Inh_KAL is 17000 M⁻¹ s⁻¹. The Kd in data set [2] (read-out: Kd_C1Inh_KAL) was 0.15 µM. For the setting “vascular space”, the “kdeg_C1Inh, degradation rate for C1Inh” value was 4.58e-06 s⁻¹. The “kdeg_Bound_C1Inh, degradation rate for bound C1Inh” value (vascular space, bound C1Inh) was 0.0038508 s⁻¹.

B1: Lanadelumab: fully human IgG1 recombinant monoclonal antibody inhibitor of activated plasma kallikrein (antibody, chains of the INN, looked up, V domains shown)
VH: EVQLLESGGGLVQPGGSLRLSCAASGFTFSHYIMMWVRQAPGKGLEWVSGIYSSGGITVYADSVKGRFTISRDNSKNTLYLQMNSLRAEDTAVYYCAYRRIGVPRRDEFDIWGQGTMVTVSS
VL: DIQMTQSPSTLSASVGDRVTITCRASQSISSWLAWYQQKPGKAPKLLIYKASTLESGVPSRFSGSGSGTEFTLTISSLQPDDFATYYCQQYNTYWTFGQGTKVEIK
Consider B1, for which, in data set [3], the koff_KAL_Lanadelumab is 0.0004033 s⁻¹ and the kon_KAL_Lanadelumab is 3.36e+06 M⁻¹ s⁻¹. Also, the Kd in data set [3] (read-out: Kd_KAL_Lanadelumab) was 0.00012 µM. Besides, in data set [4], the half-life was 14 days. Further, under “proximal space”, the kdeg Lanadelumab KAL HMWK gC1qR, degradation rate for Lanadelumab bound with KAL HMWK gC1qR receptor complex is 9.63e-05 s⁻¹.
